Reference: article PMC9482650, “Quantitative fragmentomics allow affinity mapping of interactomes” (Nature Communications, 2022)

T1: ARHGEF11, O15085
T1 sequence (O15085 42-136, limits assumed, looked up): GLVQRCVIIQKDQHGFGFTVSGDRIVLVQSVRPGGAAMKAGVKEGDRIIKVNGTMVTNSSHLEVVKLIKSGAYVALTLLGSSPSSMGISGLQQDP

T2: DLG3_2, Q92796
T2 sequence (Q92796 221-321, limits assumed, looked up): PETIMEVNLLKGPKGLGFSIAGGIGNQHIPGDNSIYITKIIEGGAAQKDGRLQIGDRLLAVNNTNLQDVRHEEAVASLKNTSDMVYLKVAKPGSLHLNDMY

T3: FRMPD1, Q5SYB0
T3 sequence (Q5SYB0 52-145, limits assumed, looked up): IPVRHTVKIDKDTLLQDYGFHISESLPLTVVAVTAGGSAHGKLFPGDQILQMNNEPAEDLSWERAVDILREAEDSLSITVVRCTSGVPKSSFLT

T4: LIN7A, O14910
T4 sequence (O14910 103-200, limits assumed, looked up): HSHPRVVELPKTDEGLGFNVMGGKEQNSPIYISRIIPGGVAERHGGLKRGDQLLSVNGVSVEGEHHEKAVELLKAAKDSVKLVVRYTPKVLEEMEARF

T5: MPDZ_12, O75970
T5 sequence (O75970 1857-1958, limits assumed, looked up): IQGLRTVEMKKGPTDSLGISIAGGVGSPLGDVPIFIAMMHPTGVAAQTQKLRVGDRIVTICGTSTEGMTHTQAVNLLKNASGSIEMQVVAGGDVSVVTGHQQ

T6: PCLO, Q9Y6V0
T6 sequence (Q9Y6V0 4491-4600, limits assumed, looked up): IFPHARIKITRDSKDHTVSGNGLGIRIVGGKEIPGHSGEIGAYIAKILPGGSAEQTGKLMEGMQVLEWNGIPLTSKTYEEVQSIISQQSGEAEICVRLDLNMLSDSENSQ

T7: PTPN13_1, Q12923
T7 sequence (Q12923 1088-1188, limits assumed, looked up): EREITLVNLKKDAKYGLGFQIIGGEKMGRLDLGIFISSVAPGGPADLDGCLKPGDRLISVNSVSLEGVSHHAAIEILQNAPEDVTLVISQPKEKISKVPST

T8: SHANK1, Q9Y566
T8 sequence (Q9Y566 658-767, limits assumed, looked up): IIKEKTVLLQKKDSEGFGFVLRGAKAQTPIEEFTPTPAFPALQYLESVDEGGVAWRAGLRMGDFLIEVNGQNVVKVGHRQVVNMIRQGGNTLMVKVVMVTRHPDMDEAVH

T9: TX1BP3, O14907
T9 sequence (O14907 10-122, limits assumed, looked up): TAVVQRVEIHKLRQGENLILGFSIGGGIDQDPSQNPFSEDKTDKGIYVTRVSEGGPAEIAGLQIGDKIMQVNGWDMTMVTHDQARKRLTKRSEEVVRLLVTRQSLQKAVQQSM


target: T1, ARHGEF11, O15085; test: holdup assay; parameters: key: below the threshold = too weak to quantify, mostly under pKd 3.1 to 4; conditions: plain residues with an end cap or a label only (N-terminal biotin on a linker: ado-ado)

| pKd | Binder |
| --- | --- |
| below the threshold | SKENVQETQI [LRRC4B, Q9NT99] |

target: DLG1_1, Q12959; test: holdup assay; parameters: key: below the threshold = too weak to quantify, mostly under pKd 3.1 to 4; conditions: plain residues with an end cap or a label only (N-terminal biotin on a linker: ado-ado)

| pKd | Binder |
| --- | --- |
| 4.23 | SKENVQETQI [LRRC4B, Q9NT99] |

target: DLG2_3, Q15700; test: holdup assay; parameters: key: below the threshold = too weak to quantify, mostly under pKd 3.1 to 4; conditions: plain residues with an end cap or a label only (N-terminal biotin on a linker: ado-ado)

| pKd | Binder |
| --- | --- |
| 4.17 | SKENVQETQI [LRRC4B, Q9NT99] |

target: T2, DLG3_2, Q92796; test: holdup assay; parameters: key: below the threshold = too weak to quantify, mostly under pKd 3.1 to 4; conditions: plain residues with an end cap or a label only (N-terminal biotin on a linker: ado-ado)

| pKd | Binder |
| --- | --- |
| 4.69 | SKENVQETQI [LRRC4B, Q9NT99] |

target: DLG5_1, Q8TDM6; test: holdup assay; parameters: key: below the threshold = too weak to quantify, mostly under pKd 3.1 to 4; conditions: plain residues with an end cap or a label only (N-terminal biotin on a linker: ado-ado)
Sequence (Q8TDM6 617-713): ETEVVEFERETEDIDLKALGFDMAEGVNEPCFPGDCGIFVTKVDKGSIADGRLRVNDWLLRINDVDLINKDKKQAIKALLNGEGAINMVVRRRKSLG

| pKd | Binder |
| --- | --- |
| below the threshold | SKENVQETQI [LRRC4B, Q9NT99] |

target: T3, FRMPD1, Q5SYB0; test: holdup assay; parameters: key: below the threshold = too weak to quantify, mostly under pKd 3.1 to 4; conditions: plain residues with an end cap or a label only (N-terminal biotin on a linker: ado-ado)

| pKd | Binder |
| --- | --- |
| below the threshold | SKENVQETQI [LRRC4B, Q9NT99] |

target: GIPC2, Q8TF65; test: holdup assay; parameters: key: below the threshold = too weak to quantify, mostly under pKd 3.1 to 4; conditions: plain residues with an end cap or a label only (N-terminal biotin on a linker: ado-ado)
Sequence (Q8TF65 112-203): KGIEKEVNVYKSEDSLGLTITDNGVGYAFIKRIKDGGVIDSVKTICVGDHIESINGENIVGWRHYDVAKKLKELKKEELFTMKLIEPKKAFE

| pKd | Binder |
| --- | --- |
| below the threshold | SKENVQETQI [LRRC4B, Q9NT99] |

target: GORASP2, Q9H8Y8; test: holdup assay; parameters: key: below the threshold = too weak to quantify, mostly under pKd 3.1 to 4; conditions: plain residues with an end cap or a label only (N-terminal biotin on a linker: ado-ado)

| pKd | Binder |
| --- | --- |
| below the threshold | SKENVQETQI [LRRC4B, Q9NT99] |

target: GRASP, Q7Z6J2; test: holdup assay; parameters: key: below the threshold = too weak to quantify, mostly under pKd 3.1 to 4; conditions: plain residues with an end cap or a label only (N-terminal biotin on a linker: ado-ado)
Sequence (Q7Z6J2 96-193): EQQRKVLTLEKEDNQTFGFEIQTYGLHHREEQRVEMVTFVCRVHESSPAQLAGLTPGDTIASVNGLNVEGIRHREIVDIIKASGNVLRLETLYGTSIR

| pKd | Binder |
| --- | --- |
| below the threshold | SKENVQETQI [LRRC4B, Q9NT99] |

target: GRID2IP_1, A4D2P6; test: holdup assay; parameters: key: below the threshold = too weak to quantify, mostly under pKd 3.1 to 4; conditions: plain residues with an end cap or a label only (N-terminal biotin on a linker: ado-ado)
Sequence (A4D2P6 1-87): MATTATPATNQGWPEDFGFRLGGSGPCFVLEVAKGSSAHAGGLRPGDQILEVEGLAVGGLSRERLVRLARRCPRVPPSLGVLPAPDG

| pKd | Binder |
| --- | --- |
| below the threshold | SKENVQETQI [LRRC4B, Q9NT99] |

target: Inadl_1, Q8NI35; test: holdup assay; parameters: key: below the threshold = too weak to quantify, mostly under pKd 3.1 to 4; conditions: plain residues with an end cap or a label only (N-terminal biotin on a linker: ado-ado)
Sequence (Q8NI35 113-229): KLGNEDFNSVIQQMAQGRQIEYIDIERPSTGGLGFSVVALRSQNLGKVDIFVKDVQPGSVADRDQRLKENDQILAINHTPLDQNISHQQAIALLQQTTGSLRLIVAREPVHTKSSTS

| pKd | Binder |
| --- | --- |
| below the threshold | SKENVQETQI [LRRC4B, Q9NT99] |

target: Inadl_10, Q8NI35; test: holdup assay; parameters: key: below the threshold = too weak to quantify, mostly under pKd 3.1 to 4; conditions: plain residues with an end cap or a label only (N-terminal biotin on a linker: ado-ado)
Sequence (Q8NI35 1673-1763): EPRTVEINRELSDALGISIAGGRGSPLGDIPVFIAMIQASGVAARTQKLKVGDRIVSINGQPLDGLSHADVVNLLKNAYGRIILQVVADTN

| pKd | Binder |
| --- | --- |
| below the threshold | SKENVQETQI [LRRC4B, Q9NT99] |

target: Inadl_5, Q8NI35; test: holdup assay; parameters: key: below the threshold = too weak to quantify, mostly under pKd 3.1 to 4; conditions: plain residues with an end cap or a label only (N-terminal biotin on a linker: ado-ado)
Sequence (Q8NI35 673-780): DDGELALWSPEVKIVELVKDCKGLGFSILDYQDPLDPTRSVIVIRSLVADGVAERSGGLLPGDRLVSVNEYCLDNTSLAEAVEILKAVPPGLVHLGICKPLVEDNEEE

| pKd | Binder |
| --- | --- |
| below the threshold | SKENVQETQI [LRRC4B, Q9NT99] |

target: Inadl_9, Q8NI35; test: holdup assay; parameters: key: below the threshold = too weak to quantify, mostly under pKd 3.1 to 4; conditions: plain residues with an end cap or a label only (N-terminal biotin on a linker: ado-ado)
Sequence (Q8NI35 1530-1615): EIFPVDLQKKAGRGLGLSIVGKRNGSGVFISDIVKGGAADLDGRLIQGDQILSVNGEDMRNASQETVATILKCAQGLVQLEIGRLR

| pKd | Binder |
| --- | --- |
| below the threshold | SKENVQETQI [LRRC4B, Q9NT99] |

target: T4, LIN7A, O14910; test: holdup assay; parameters: key: below the threshold = too weak to quantify, mostly under pKd 3.1 to 4; conditions: plain residues with an end cap or a label only (N-terminal biotin on a linker: ado-ado)

| pKd | Binder |
| --- | --- |
| below the threshold | SKENVQETQI [LRRC4B, Q9NT99] |

target: LNX1_1, Q8TBB1; test: holdup assay; parameters: key: below the threshold = too weak to quantify, mostly under pKd 3.1 to 4; conditions: plain residues with an end cap or a label only (N-terminal biotin on a linker: ado-ado)
Sequence (Q8TBB1 261-371): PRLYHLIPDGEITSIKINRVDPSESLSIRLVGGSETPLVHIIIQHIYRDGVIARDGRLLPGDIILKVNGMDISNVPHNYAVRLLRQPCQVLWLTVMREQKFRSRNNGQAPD

| pKd | Binder |
| --- | --- |
| below the threshold | SKENVQETQI [LRRC4B, Q9NT99] |

target: MAGI2_2, Q86UL8; test: holdup assay; parameters: key: below the threshold = too weak to quantify, mostly under pKd 3.1 to 4; conditions: plain residues with an end cap or a label only (N-terminal biotin on a linker: ado-ado)
Sequence (Q86UL8 410-522): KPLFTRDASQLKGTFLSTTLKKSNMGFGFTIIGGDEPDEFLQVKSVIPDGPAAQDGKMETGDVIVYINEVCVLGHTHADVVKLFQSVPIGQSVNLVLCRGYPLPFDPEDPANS

| pKd | Binder |
| --- | --- |
| below the threshold | SKENVQETQI [LRRC4B, Q9NT99] |

target: MAGI2_3, Q86UL8; test: holdup assay; parameters: key: below the threshold = too weak to quantify, mostly under pKd 3.1 to 4; conditions: plain residues with an end cap or a label only (N-terminal biotin on a linker: ado-ado)
Sequence (Q86UL8 600-682): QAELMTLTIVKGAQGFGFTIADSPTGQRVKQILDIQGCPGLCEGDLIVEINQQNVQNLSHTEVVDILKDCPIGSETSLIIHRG

| pKd | Binder |
| --- | --- |
| 3.63 | SKENVQETQI [LRRC4B, Q9NT99] |

target: MAGI2_6, Q86UL8; test: holdup assay; parameters: key: below the threshold = too weak to quantify, mostly under pKd 3.1 to 4; conditions: plain residues with an end cap or a label only (N-terminal biotin on a linker: ado-ado)
Sequence (Q86UL8 1141-1229): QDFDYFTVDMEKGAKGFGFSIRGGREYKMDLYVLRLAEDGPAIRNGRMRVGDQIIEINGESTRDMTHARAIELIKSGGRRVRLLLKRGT

| pKd | Binder |
| --- | --- |
| 3.92 | SKENVQETQI [LRRC4B, Q9NT99] |

target: MAST2, Q6P0Q8; test: holdup assay; parameters: key: below the threshold = too weak to quantify, mostly under pKd 3.1 to 4; conditions: plain residues with an end cap or a label only (N-terminal biotin on a linker: ado-ado)
Sequence (Q6P0Q8 1099-1202): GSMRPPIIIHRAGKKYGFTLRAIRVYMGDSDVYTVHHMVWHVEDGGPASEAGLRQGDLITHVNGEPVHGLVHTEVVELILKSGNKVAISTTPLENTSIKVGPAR

| pKd | Binder |
| --- | --- |
| 5.56 | SKENVQETQI [LRRC4B, Q9NT99] |

target: T5, MPDZ_12, O75970; test: holdup assay; parameters: key: below the threshold = too weak to quantify, mostly under pKd 3.1 to 4; conditions: plain residues with an end cap or a label only (N-terminal biotin on a linker: ado-ado)

| pKd | Binder |
| --- | --- |
| 3.48 | SKENVQETQI [LRRC4B, Q9NT99] |

target: NHERF2_2, Q15599; test: holdup assay; parameters: key: below the threshold = too weak to quantify, mostly under pKd 3.1 to 4; conditions: plain residues with an end cap or a label only (N-terminal biotin on a linker: ado-ado)
Sequence (Q15599 142-238): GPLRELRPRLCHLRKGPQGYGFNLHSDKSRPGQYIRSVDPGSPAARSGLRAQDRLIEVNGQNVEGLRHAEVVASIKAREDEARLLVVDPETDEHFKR

| pKd | Binder |
| --- | --- |
| 3.88 | SKENVQETQI [LRRC4B, Q9NT99] |

target: NHERF4_4, Q86UT5; test: holdup assay; parameters: key: below the threshold = too weak to quantify, mostly under pKd 3.1 to 4; conditions: plain residues with an end cap or a label only (N-terminal biotin on a linker: ado-ado)
Sequence (Q86UT5 464-550): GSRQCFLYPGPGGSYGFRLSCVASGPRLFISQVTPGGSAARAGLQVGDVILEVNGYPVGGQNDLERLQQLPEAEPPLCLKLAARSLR

| pKd | Binder |
| --- | --- |
| below the threshold | SKENVQETQI [LRRC4B, Q9NT99] |

target: T6, PCLO, Q9Y6V0; test: holdup assay; parameters: key: below the threshold = too weak to quantify, mostly under pKd 3.1 to 4; conditions: plain residues with an end cap or a label only (N-terminal biotin on a linker: ado-ado)

| pKd | Binder |
| --- | --- |
| below the threshold | SKENVQETQI [LRRC4B, Q9NT99] |

target: PDZRN4_1, Q6ZMN7; test: holdup assay; parameters: key: below the threshold = too weak to quantify, mostly under pKd 3.1 to 4; conditions: plain residues with an end cap or a label only (N-terminal biotin on a linker: ado-ado)
Sequence (Q6ZMN7 213-318): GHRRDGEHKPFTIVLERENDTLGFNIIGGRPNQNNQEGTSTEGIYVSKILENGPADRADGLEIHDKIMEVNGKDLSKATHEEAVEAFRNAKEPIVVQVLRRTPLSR

| pKd | Binder |
| --- | --- |
| 4.18 | SKENVQETQI [LRRC4B, Q9NT99] |

target: T7, PTPN13_1, Q12923; test: holdup assay; parameters: key: below the threshold = too weak to quantify, mostly under pKd 3.1 to 4; conditions: plain residues with an end cap or a label only (N-terminal biotin on a linker: ado-ado)

| pKd | Binder |
| --- | --- |
| below the threshold | SKENVQETQI [LRRC4B, Q9NT99] |

target: PTPN3, P26045; test: holdup assay; parameters: key: below the threshold = too weak to quantify, mostly under pKd 3.1 to 4; conditions: plain residues with an end cap or a label only (N-terminal biotin on a linker: ado-ado)
Sequence (P26045 505-587): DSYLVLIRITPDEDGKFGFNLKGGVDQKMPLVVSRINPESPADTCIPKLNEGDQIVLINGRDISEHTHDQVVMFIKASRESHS

| pKd | Binder |
| --- | --- |
| 4.8 | SKENVQETQI [LRRC4B, Q9NT99] |

target: T8, SHANK1, Q9Y566; test: holdup assay; parameters: key: below the threshold = too weak to quantify, mostly under pKd 3.1 to 4; conditions: plain residues with an end cap or a label only (N-terminal biotin on a linker: ado-ado)

| pKd | Binder |
| --- | --- |
| 3.98 | SKENVQETQI [LRRC4B, Q9NT99] |

target: T9, TX1BP3, O14907; test: holdup assay; parameters: key: below the threshold = too weak to quantify, mostly under pKd 3.1 to 4; conditions: plain residues with an end cap or a label only (N-terminal biotin on a linker: ado-ado)

| pKd | Binder |
| --- | --- |
| below the threshold | SKENVQETQI [LRRC4B, Q9NT99] |
